Each block holds one binder with its values, some of them ahead of it.
B3: BMP-6 subunit beginning with amino acid #375 (CHO-produced) (ligand)
chain: SASSRRRQQSRNRSTQSQDVARVSSASDYNSSELKTACRKHELYVSFQDLGWQDWIIAPKGYAANYCDGECSFPLNAHMNATNHAIVQTLVHLMNPEYVPKPCCAPTKLNAISVLYFDDNSNVILKKYRNMVVRACGCH
notes: Single subunit

Columns and labels:
[1] = molecular target: B3; test: protein sequencing of purified CHO BMP-2/6 heterodimer subunits
Protocol: (§1) The BMP-2/6 heterodimer subunits are analyzed on a protein sequenator.

[2] = molecular target: the molecule itself; test: refolding of E. coli monomer, SDS-PAGE with and without reduction
[3] = molecular target: the molecule itself; test: purification of BMP-2/6 from CHO 12C07 medium, gel analysis
Protocol: After the completion of sample loading, the column was washed with 10 bed volumes of the equilibration buffer. Bound BMP-2/7 or BMP-2/6 heterodimers were eluted with 5 bed volumes of 100 mM potassium phosphate, 6M urea, pH 7.4. This eluate was loaded directly onto a Vydac C_4 reverse-phase HPLC column equilibrated in water –0.1% TFA. BMP-2/7 or BMP-2/6 heterodimers were eluted with a gradient of 30-50% acetonitrile in water—0.1% trifluoroacetic acid.
Fractions containing BMPs are identified by SDS-PAGE in the presence or absence of reductant. The identity of the BMPs with respect to the heterodimers vs. homodimers is determined by 2D-PAGE (+/−reductant). Fractions with heterodimers gave bands which reduce to two spots. Bands from homodimer fractions reduce to a single spot for each BMP species.

[4] = molecular target: T1, BMP-2 subunit beginning with amino acid #249 (CHO-produced) (human, UniProt P12643 249-396); test: protein sequencing of purified CHO BMP-2/6 heterodimer subunits
T1 construct: Single subunit; also called BMP-2 subunit #249 Ser-Lev-His
T1 sequence: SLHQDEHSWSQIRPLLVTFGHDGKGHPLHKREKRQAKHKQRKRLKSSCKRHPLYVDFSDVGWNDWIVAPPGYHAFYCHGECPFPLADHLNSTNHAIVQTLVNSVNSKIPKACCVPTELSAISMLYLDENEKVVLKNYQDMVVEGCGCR
Protocol: as §1

binding result [1]: binds
B1: BMP-2 subunit beginning with amino acid #283 (CHO-produced) (ligand)
chain: QAKHKQRKRLKSSCKRHPLYVDFSDVGWNDWIVAPPGYHAFYCHGECPFPLADHLNSTNHAIVQTLVNSVNSKIPKACCVPTELSAISMLYLDENEKVVLKNYQDMVVEGCGCR
notes: also called mature BMP-2 subunit

B2: E. coli BMP-2 monomer (mature portion of BMP-2 from plasmid pALBP2-781) (ligand)
chain: MQAKHKQRKRLKSSCKRHPLYVDFSDVGWNDWIVAPPGYHAFYCHGECPFPLADHLNSTNHAIVQTLVNSVNSKIPKACCVPTELSAISMLYLDENEKVVLKNYQDMVVEGCGCR
binding result [2]: binds

Binder: B3
binding result [3]: binds
binding result [4]: binds

Reference: patent publication US7678885 (GENETICS INSTITUTE, dated 2010)
